Key:
[1] = test system: T cells from cat-allergic patients; test: Secondary proliferation assay of T cells primed with TRFP, peptide YXZ or peptide YZX; format: cell-based, human
Experimental: The human cat allergic T cell response to peptides produced as above was examined. […] Peptide YZX was cleaved with thrombin as described in Example 25. Viable cells were then purified by Ficoll-Hypaque centrifugation and cultured for 2 additional weeks in RPMI-1640/5% AB serum containing 5 units recombinant human IL-2/ml and 5 units recombinant human IL-4/ml. The resting T cells were then tested in a secondary proliferation assay using a 96 well microtiter plate to assess T cell responses to various TRFP proteins or peptides (TRFP antigens). For assay, 2×10^4 resting T cells were cultured for 3 days at 37° C. in the presence of 2×10^4 autologous Epstein-Barr virus transformed B cells (25,000 Rads) as antigen presenting cells with various concentrations of antigen in 200 μl per well. Each well then received 1 μCi tritiated thymidine for 16 hours. The counts incorporated were collected onto glass fiber filters and processed for liquid scintillation counting. The stimulation indices for responses to each antigen were then calculated as the maximum CPM in response to antigen divided by the medium control CPM. A stimulation index of 2.5 was considered to be a positive T cell response. A summary of the results of 3 such experiments (patients 522, 519, and 386 is shown in FIG. 35a, FIG. 35b and FIG. 35c). As compared to the experiments shown in FIGS. 35a and 35b in the experiment shown in […], Fel-1.4 (chain 1, amino acid residues 6-17) was substituted for Fel-1.2 (chain 1, amino acid residues 1-17) and Fel-33.3 (chain 2, amino acid residues 26-40) was substituted for Fel-18 (chain 2, amino acid residues 23-48) in order to more closely resemble the constituent amino acids of peptides X and Z. In addition, in this experiment one peptide derived from the Y-Z junction of peptide YZX (amino acid residues 50-55 from chain 1 of TRFP and amino acid residues 14-19 from chain 2 of TRFP) and one peptide derived from the Z-X junction of peptide YZX (amino acid residues 34-39 of chain 2 of TRFP and amino acid residues 7-12 of chain 1 of TRFP) were synthesized and tested. These junction peptides were produced in order to determine whether these areas of peptide YZX produce a non-native epitope when formed in the peptide.

B6CBAF1 mice = test: Murine T cell response after immunization with peptide YZX, IL-2 production (CTLL-2); format: in vivo, mouse; details: mice immunized with 100 μg peptide YZX in CFA; label = antigen in culture
Experimental: 10 B6CBAF1 mice were immunized subcutaneously at the base of the tail and in the thigh region with 100 μg of peptide YZX in complete Freund's adjuvant. After 10 days, the inguinal, paraaortic, and popliteal nodes of the immunized mice were removed and pooled. The lymph node cells were suspended in cold RPMI 1640 with 1% fetal bovine serum (FBS) by passage through stainless steel mesh. The cells were washed 2 times with cold RPMI-1640 containing 1% FBS and maintained at 4° C.
The lymph node cells were plated at 4×10^6 cells/ml in RPMI 1640 with 10% FBS, 250 μg/ml penicillin G, 100 μg/ml streptomycin, and 5×10^−5 M 2-mercaptoethanol. […] After 24 hours, 50 μl of supernatant was removed from each culture and frozen overnight to eliminate live cell carryover. The supernatant was warmed to […] and washed. CTLL-2 indicator cells (ATCC # T1B 214) were added (5×10^3 cells/well). This indicator cell line requires IL-2 for continued growth. After 24 hours, H^3-thymidine (1 μCi/well) was added and the cells were further incubated for 4 hours. The plates were frozen and thawed, harvested on a Tomtec 96 well harvester (Tomtec, Orange, Conn.), and counted on a Betaplate beta counter (Pharmacia, Gaithersburg, Md.).

[2] = test system: human IgE (cat allergic patient plasma); test: Direct binding ELISA of human IgE to coated antigen; details: direct binding ELISA or similar protocol
Experimental: The basic format of these ELISA assays was a direct binding assay wherein the antigen was coated onto the wells of a 96 well microtitre dish and then antibodies in solution are added and assayed for the binding capacity. The protocol for these assays was as follows:
The peptides were conjugated to HSA (human serum albumin) by two different methods based on their chemical structure. […] Both conjugates were filter purified and dialyzed against PBS. In the ELISA assay, the unbound coating antigens were removed and the wells were blocked with 0.5% gelatin in PBS, 200 μl/well for 2 hours at room temperature. The antibody solution was a pool of plasma samples from 20 patients that were skin test positive for commercial cat extract which was serially diluted with PBS-Tween 20 (PBS with 0.05% nonionic detergent Tween-Sigma, St. Louis Mo.) and 100 μl/well was added and incubated overnight at 4° C. (plasma dilutions are tested in duplicate). […] The second antibody (biotinylated goat anti-Human IgE, 1:1000 Kirkegaard & Perry Laboratories Inc. Gaithersburg, Md.), was added at 100 μl/well for one hour at room temperature. This solution was removed and streptavidin-HRPO, 1:1000, (Southern Biotechnology Associates, Inc., Birmingham, Ala.) was then added at 100 μl/well for one hour at room temperature (all wells were washed three times with PBS-Tween between each incubation step). TMB Membrane Peroxidase Substrate system (Kirkegaard & Perry Laboratories) was freshly mixed, and added at 100 μl/well. The color was allowed to develop for 2-5 minutes. The reaction was stopped by the addition of […] of 1 M phosphoric acid. Plates are read on a Microplate EL 310 Autoreader (Biotek Instruments, Winooski, Vt.) with a 450 nm filter. The absorbance levels of duplicate wells were averaged.

human IgE [3] = test: SDS/PAGE Western immunoblot of human IgE binding, plasma from patient #417; details: patient #417 plasma
Experimental: Western immunoblot analysis of the peptides produced in above was performed. The concentration of all protein samples (e.g., TRFP, recombinant chain 1 of TRFP, recombinant chain 2 of TRFP, peptide XYZ, peptide XZY, peptide YXZ, peptide YZX, peptide ZXY and peptide ZYX) for gel electrophoresis was determined by the BCA method (Pierce Co.). All protein samples were loaded on the gel at 5 μg/lane except TRFP at 10 μg/lane. Protein separation was carried out on a 15% acrylamide gel, and transfer was performed by electroblotting at 1.5 Amps for 1.5 hours onto nitrocellulose paper (Schleicher and Schuell, 0.1 microns) in a Hoeffer apparatus according to the protocol of Towbin, H., T. Stachlin, and J. Gordon, PNAS 76:4350 (1979). Proteins were rinsed in blot solution (25 mM Tris-HCl 7.5, 0.171 M NaCl and 0.5 ml/liter Tween 20). The blot was then blocked for one hour in blocking solution (1% milk in blot solution). Plasma from patient #417, used as a primary antibody source, was diluted in blocking solution to 10% and preabsorbed for 1.5 hours with unused nitrocellulose (2 cm×15 cm). The prepared human plasma was then incubated overnight on an orbital shaker with the protein blot section of interest. Following the first antibody incubation the blot section was washed three times, each wash involved a fifteen minute incubation in blot solution. The second antibody, specific for human IgE (biotinylated goat anti-human IgE, KPL Inc.), was diluted 1:2500 in blot solution and the incubation proceeded for two hours. Excess second antibody was subsequently removed by three 15 minute incubations with blot solution. ^125I Iodinated streptavidin (Amersham) was diluted 1:2500 in blot solution and incubated with blots for 1 hour, at 2 μCi in a 50 ml incubation volume. Blot sections were then washed with blot solution until the detectable radioactivity in the waste solution decreased to background levels. The blot section was then wrapped in saran wrap and exposed to film overnight with a cronex intensifying screen at −80° C.

human IgE [4] = test: ELISA of human IgE binding, plasma from patient #669; details: patient #669 plasma
Experimental: Corning assay plates (#25882-96) were coated with 10 μg/ml of each coating antigen (i.e., TRFP, chain 1 (recombinant chain 1 of TRFP), chain 2 (recombinant chain 2 of TRFP), peptide XYZ, peptide XZY, peptide YXZ, peptide YZX, peptide ZXY and peptide ZYX) listed in FIG. 34 at 50 μl/well and incubated overnight at 4° C. The coating antigens were removed and the wells were blocked with 0.5% gelatin in PBS, 200 μl/well for 2 hours at room temperature. Plasma from patient #669 was serially diluted with PBS-Tween 20 (PBS with 0.05% nonionic detergent Tween-20 Sigma, St. Louis Mo.) and 100 μl/well was added and incubated overnight at 4° C. (plasma dilutions are tested in duplicate). The second antibody (biotinylated goat anti-Human IgE, 1:1000, Kirkegaard & Perry Laboratories Inc. Gaithersburg, Md.), was added at 100 μl/well for one hour at room temperature. This solution was removed and streptavidin-HRPO, 1:10,000 (Southern Biotechnology Associates, Inc., Birmingham, Ala.) was then added at 100 μl/well for one hour at room temperature (all wells were washed three times with PBS-Tween between each incubation step). TMB Membrane Peroxidase Substrate system (Kirkegaard & Perry Laboratories) was freshly mixed, and added at 100 μl/well. The color was allowed to develop for 2-5 minutes. The reaction was stopped by the addition of 100 μl/well of 1M phosphoric acid. Plates were read on a Microplate EL 310 Autoreader (Biotek Instruments, Winooski, Vt.) with a 450 nm filter. The absorbance levels of duplicate wells were averaged.

[5] = patient 386, T cells primed with YZX
[6] = patient 519, cells primed with peptide YXZ

| Molecule | T cell response of pooled lymph node cells (IL-2 production) (B6CBAF1 mice) | specific IgE binding [2] | IgE binding, Western immunoblot (human IgE [3]) | also measured |
| --- | --- | --- | --- | --- |
| peptide Z: amino acid residues 14-39 from chain 2 of TRFP (SEQ. ID. NO: 19) (FFAVANGNELLLDLSLTKVNATEPER) | significant response | None of these peptides showed IgE binding | – | T cell response [1, 5]: respond at a similar level or better; T cell response [1, 6]: positive responses; T cell response ([1]; patient 522, T cells primed with YXZ): respond at a similar level or better |
| Fel 8-1: TRFP chain 1 amino acids 5-33 (AVKRDVDLFLTGTPDEYVEQVAQYKALPV; UniProt P30438 27-55, looked up, fragment) | – | None of these peptides showed IgE binding | – | – |
| Fel 31-1: TRFP chain 2 amino acids 14-40 (VTQALGVKMAETCPIFYDVFFAVANGN) | – | None of these peptides showed IgE binding | – | – |
| peptide YZX: recombinant peptide: peptide Y linked to peptide Z linked to peptide X (SEQ ID NO: 103) (protein) MGHHHHHHEFLVPRGSKALPVVLENARILKNCVDAKMTEEDKEFFAVANGNELLLDLSLTKVNATEPERKRDVDLFLTGTPDEYVEQVAQYKALPV | respond well | – | negative for IgE binding | T cell response [1, 5]: respond at a similar level or better; T cell response ([1]; patient 386, T cells primed with native TRFP): positively respond |
| peptide YXZ: recombinant peptide: peptide Y, peptide X and peptide Z linked in this order (protein) MGHHHHHHEFKALPVVLENARILKNCVDAKMTEEDKEKRDVDLFLTGTPDEYVEQVAQYKALPVFFAVANGNELLLDLSLTKVNATEPER | – | – | negative for IgE binding | T cell response [1, 6]: positive responses; T cell response ([1]; patient 519, native TRFP-primed T cells): respond; T cell response ([1]; patient 522, T cells primed with native TRFP, SI 2.5 positive): positively respond |
| peptide XYZ: recombinant peptide: peptide X, peptide Y and peptide Z linked in this order (protein) MGHHHHHHLVPRGSKRDVDLFLTGTPDEYVEQVAQYKALPVVLENARILKNCVDAKMTEEDKEFFAVANGNELLLDLSLTKVNATEPER | – | – | show IgE binding | IgE binding, ELISA (human IgE [4]): slight signal |
| peptide ZYX: recombinant peptide: peptide Z, peptide Y and peptide X linked in this order (protein) MGHHHHHHLVPRGSFFAVANGNELLLDLSLTKVNATEPERKALPVVLENARILKNCVDAKMTEEDKEKRDVDLFLTGTPDEYVEQVAQYKALPV | strong T cell responses | – | negative for IgE binding | – |
| peptide XZY: recombinant peptide: peptide X, peptide Z and peptide Y linked in this order (protein) MGHHHHHHEFKRDVDLFLTGTPDEYVEQVAQYKALPVFFAVANGNELLLDLSLTKVNATEPERKALPVVLENARILKNCVDAKMTEEDKE | strong T cell responses | – | negative for IgE binding | – |
| recombinant chain 2: recombinant TRFP chain 2 expressed in E. coli (protein, UniProt P30440 18-109, looked up, expressed in E. coli, recombinant TRFP chain 2 expressed in E. coli) Major allergen I polypeptide …: VKMAETCPIFYDVFFAVANGNELLLDLSLTKVNATEPERTAMKKIQDCYVENGLISRVLDGLVMTTISSSKDCMGEAVQNTVEDLKLNTLGR | – | – | reduced compared to chain 1 | IgE binding, ELISA (human IgE [4]): somewhat lower binding |

Reference: patent US7482008B1, “Human T cell reactive feline protein (TRFP) isolated from house dust and uses therefor” (Merck Patent GmbH, priority 1989, dated 2009)
